Data set [1] concerns the molecule itself. The data set can be described thus: transmission electron microscopy; time course of the probe solution with or without irradiation (ADP-1 50 uM; 365 nm, 32 mW/cm^2, 1 min).
Data set [2] deals with the molecule itself. Nature of the data set: fluorescence lifetime imaging microscopy (self-quenching); SH-SY5Y cells treated with 1 uM ADP-2 and photoinitiated; fixed 2, 12 and 24 h after UV.

This is an account of results in PMC9814621, “Nanoscopic investigation of C9orf72 poly-GA oligomers on nuclear membrane disruption by a photoinducible platform” (Communications Chemistry, 2021).

Ends that are not written are not given here.

B1: GA DPRs fragment photoreleased from ADP-1 [cysteine-(glycine-alanine)12] (peptide)
peptide: CGAGAGAGAGAGAGAGAGAGAGAGA
notes: N-terminal cysteine followed by 12 glycine-alanine repeats; poly-GA dipeptide repeat translated from the G4C2 repeat expansion of C9orf72 (not part of the C9orf72 protein itself); also called (GA)12; ADP-1-derived GA DPRs; source: synthetic peptide (Fmoc chemistry, HPLC purified), released from ADP-1 by 365-nm light; also released inside SH-SY5Y cells treated with ADP-1
On to B1, for which the binding result in data set [1] is on record as “binds”.

B2: Alexa Fluor 488-labelled GA DPRs fragment photoreleased from ADP-2 [Alexa Fluor 488-cysteine-(glycine-alanine)12] (peptide)
peptide: C(Alexa Fluor 488 C5 maleimide)GAGAGAGAGAGAGAGAGAGAGAGA
notes: N-terminal cysteine (labelled) followed by 12 glycine-alanine repeats; poly-GA dipeptide repeat of the C9orf72 repeat expansion; also called AF-488-labeled GA DPRs; ADP-2-derived GA DPRs; source: also released inside SH-SY5Y cells treated with ADP-2
With B2, the binding result in data set [2] was “binds”.
